The results in this text go back to doi:10.1101/812115.

Where two headings read alike, the source gives them in different places.

Assay [1] has as its target TDP-43 C-terminal domain (TDP-43CTD) (267-414) (UniProt Q13148). The experiment in a line: co-sedimentation.
For assay [2] the target is unchanged. The experiment in a line: co-sedimentation. The source holds these as a separate data set.

UniProt Q13148, sequence (Q13148 267-414): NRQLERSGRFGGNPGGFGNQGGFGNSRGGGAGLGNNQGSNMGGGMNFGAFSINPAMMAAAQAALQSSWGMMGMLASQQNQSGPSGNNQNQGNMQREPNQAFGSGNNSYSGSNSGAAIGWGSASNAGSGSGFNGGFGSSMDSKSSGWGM

For “GRN-5 (granulin-5, oxidized) (domain or fragment)”, the values for the stoichiometry N (GRN per TDP-43CTD) in assay [1] and in assay [2] were 0.73 and 0.75, respectively.

In the case of “rGRN-5 (granulin-5, fully reduced) (domain or fragment)”, the stoichiometry N (GRN per TDP-43CTD) in assay [2] came to 1.1.
